Data published in publication PMC3372094.

Molecular target: calmodulin-binding domain of the original SK2 channel, SK2-a (UniProt P70604)
Assay: ITC

UniProt P70604, sequence (P70604 396-487): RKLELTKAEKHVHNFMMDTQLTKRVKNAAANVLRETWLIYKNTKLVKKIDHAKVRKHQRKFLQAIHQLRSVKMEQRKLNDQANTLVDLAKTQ

Question: For “calmodulin (rat) (from UniProt P0DP29 1-149) (natural protein; other documents disagree on this pair)”, which dH of the first site (rising phase, two-site fit) is on record?
Answer: -34.7 kcal/mol
